# Experimental data reported in US20090041784A1 (Amgen, published 2009).
# Residue numbers refer to the chain shown, from its start.
# T1: cynomolgus glucagon receptor (cynomolgus (Macaca fascicularis), UniProt P47871 26-477 (human entry))
# T1 chain: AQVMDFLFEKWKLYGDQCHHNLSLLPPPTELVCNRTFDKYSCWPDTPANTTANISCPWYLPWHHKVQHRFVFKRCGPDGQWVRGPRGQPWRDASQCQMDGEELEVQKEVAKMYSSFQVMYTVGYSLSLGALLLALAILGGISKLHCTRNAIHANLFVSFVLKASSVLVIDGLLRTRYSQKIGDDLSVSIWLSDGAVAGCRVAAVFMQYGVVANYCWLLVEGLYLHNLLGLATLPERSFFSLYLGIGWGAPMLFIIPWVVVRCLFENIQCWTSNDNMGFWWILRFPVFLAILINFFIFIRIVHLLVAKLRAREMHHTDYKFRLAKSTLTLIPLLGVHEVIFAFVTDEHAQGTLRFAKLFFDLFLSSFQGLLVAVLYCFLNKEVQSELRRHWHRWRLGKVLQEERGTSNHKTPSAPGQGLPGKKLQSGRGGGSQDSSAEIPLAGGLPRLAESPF
# B1: antibody A-9 (antibody, V domains shown)
# VH: QVQLVESGGGVVQPGRSLRLSCAASGFTFSSYGMHWVRQAPGKGLEWVAVMWYDGSNKDYVDSVKGRFTISRDNSKNTLYLQMNRLRAEDTAVYYCAREKDHYDILTGYNYYYGLDVWGQGTTVTVSS
# VL: DIQMTQSPSSLSASVGDRVTITCRASQGIRNDLGWYQQKPGKAPKRLIYAASSLESGVPSRFSGSGSGTEFTLTISSVQPEDFVTYYCLQHNSNPLTFGGGTKVEIK
# B2: antibody A-10 (antibody, V domains shown)
# VH: QVQLQQSGPGLVRPSQTLSLTCAISGDSVSSNYAAWNWIRQSPSRGLEWLGRTYYRSKWYNDYAVSVRSRTTINPDTSKNQFSLQLNSVTPEDTAVYYCTREDGSGWYGAFDIWGQGTMVTVSS
# VL: DIQMTQSPSSLSASVGDRVTITCQASQDISKYLNWYQQKPGKAPKLLIYDASNLETGVPSRFSGSGSGTDFTFTISSLQPEDIATYYCQQYGNLPITFGQGTRLESK
# notes: Human antibody from XenoMouse hybridoma (IgG2 or IgG4 strains), purified from conditioned medium; also called L10H10
# B3: antibody A-18 (antibody, V domains shown)
# VH: QVQLVESGGGVVQPGRSLRLSCAASGFTFSRYGMHWVRQAPGKGLEWVAVIWYDGSHKYYEDSVKGRFTISRDNSKNTLYLQMNSLRADDTGVYYCARVGYGSGWYEYYYHYGMDVWGQGTTVTVSS
# VL: NIVMTQTPLSLSVTPGQPASISCKSSQSLLHSDGKNYLFWYLQKPGQSPQLLIYEVSYRFSGVPDRFSGSGSGTDFSLKISRVEAEDVGVYYCMQNIQPPLTFGQGTRLEIK
# notes: Human antibody from XenoMouse hybridoma (IgG2 or IgG4 strains), purified from conditioned medium; also called L18H18
# B4: antibody A-1 (antibody, V domains shown)
# VH: QVQLVESGGGVVQPGRSLRLSCAASGITFSSYGMHWVRQAPGKGLEWVASIWYDGSNKYYVDSVKGRFTIFRDNSKKTLYLQMNRLRAEDTAVYYCARLGGGFDYWGQGTLVTVSS
# VL: DIVLTQTPLSLPVTPGEPASISCRSSQSLLDRDDGDTYLDWYLQKPGQSPQLLIYTLSYRASGVPDRFSGSGSGTDFSLKISRVEAEDVGVYYCMQRIEFPFTFGPGTKVDIK
# B5: antibody A-8 (antibody, V domains shown)
# VH: B4 VH with V5A, A23T, S50G, S56R, F71S, R85S, G100A, G101V, G102A
# VL: B4 VL with L4M, S26T, R32S, S78T
# B6: antibody A-22 (antibody, V domains shown)
# VH: B4 VH
# VL: B4 VL
# B7: antibody A-2 (antibody, V domains shown)
# VH: B4 VH with A40G, S50F, N57E, F71S, K77N, R85S, L99M
# VL: B4 VL with L4M, R32S, D33A, G74D
# B8: antibody A-14 (antibody, V domains shown)
# VH: QVQLVESGGGVVQPGRSLRLSCAASGFTFSNYGMHWVRQAPGKGLEWVAVIWYDGSNKYYADSVKGRFTISRDNSKNTLYLQMNSLRAEDTAVYYCARAYYDILTDYPQYDYYYGMDVWGQGTTVTVSS
# VL: NFMLTQPHSVSESPGKTVTISCTRSSGSIVSNFVQWYQQRPGSSPTTVIYEDNQRPSGVPDRFSGSIDSSSNSASLTISGLKTEDEADYYCQSYDTSNQVFGGGTKLTVL
# B9: antibody A-7 (antibody, V domains shown)
# VH: QVQLVESGGGVVQPGRSLRLSCAASGFTFSSYDMHWVRQAPGKGLEWVAVISHDGSDKYYADSVKGRFTISRDNSKNTLYLQMSSLRAEDTAVYYCAREKPYYDILTGYFYYYGMDVWGQGTTVTVSS
# VL: B1 VL with I21V, G28D, L33F, E55Q, V78L, V84A, H91Q, N94Y
# B10: antibody A-5 (antibody, V domains shown)
# VH: QVQLVESGGGVVQPGRSLRLSCAASGFTFSTYGMHWVRQAPGKGLEWVAVISDDGSHKYSADSVKGRFTISRDNSKNTLYLQMNSLRTEDSAVYYCAREETYYDILTGYHHYYGMDVWGQGTTVTVSS
# VL: B1 VL with S14F, I48L, E55Q, T69S, V78L, V84A, N94D, G100Q, K103R, V104L
# B11: antibody A-6 (antibody, V domains shown)
# VH: QVQLVESGGGVVQPGRSLRLSCAASGFTFSSYGMHWVRQAPGKGLEWVAEIWNDGSNKYYADSVKGRFTISRDNPKNTLYLQMNSLRAEDTAVYYCAREPQYYDILTGYDNYYGMDVWGQGTTVTVSS
# VL: EIVLTQSPGTLSLFPGERATLSCRASQSVSSNYLAWYQQKSGQAPRLLIYGASSRATGIPDRFSGSGSGTDFTLTISRLEPEDFAVYYCQQYGNSPFTFGPGTNVDIK
# B12: antibody A-11 (antibody, V domains shown)
# VH: QVQLVESGGGVVQPGRSLRLSCAASGSTFRSYDMHWVRQAPGKGLEWVAFISDDGSNKYYGDSVKGRLTISRDNSKNTLYLQMNSLRAEDTAVYYCARDQYDILTGYSSDAFDIWGQGTMVTVSS
# VL: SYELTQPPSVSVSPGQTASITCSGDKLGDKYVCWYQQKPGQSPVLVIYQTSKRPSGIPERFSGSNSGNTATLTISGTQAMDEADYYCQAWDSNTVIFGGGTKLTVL
# B13: antibody A-13 (antibody, V domains shown)
# VH: B12 VH with F50V, D53Y
# VL: not shown
# B14: antibody A-12 (antibody, V domains shown)
# VH: B12 VH
# VL: not shown
# B15: antibody A-15 (antibody, V domains shown)
# VH: QVQLVESGGGVVQPGKSLRLSCAVSGFIFSSYGMHWVRQAPGKGLEWVALISFDGSNKYYADSVKGRFTISRDNSKNTLYLQMNSLRAEDTAVYYCARDGYYDILTGYEDDAFDIWGQGTMVTVSS
# VL: not shown
# B16: antibody A-20 (antibody, V domains shown)
# VH: EVQLVESGGDLVQPGGSLRLSCAASGFTFSGYTLNWVRQAPGKGLEWVSNINSRSSLIYYTDSVKGRFTISRDNAKNSLYLQMNSLRDEDTAVYFCARDQYNWNYYYGMDVWGQGTTVTVSS
# VL: B1 VL with E55Q, S77N, V78L, V84A, N94Y, L96R, T97S, G100Q, V104L
# notes: Human antibody from XenoMouse hybridoma; also called L20H20
# B17: antibody A-23 (antibody, V domains shown)
# VH: EVRLVESGGGLVQPGGSLRLSCTASGFPFNRYAMNWVRQAPGKGLEWVSYIGSSSSAIYYADSVKGRFTISRDNAKNSLYLQMNSLRDEDTAVYYCARYSSGWSPLFDYWGQGTLVTVSS
# VL: DIQMTQSPSSVSASVGDRVTITCRASQGISSWLAWYQQKPGKAPKLLIYTASTLQSGVPSRFSGSGSGTDFTLTISSLQPEDFATYYCQQSNSFPLTFGGGTKVEIK
# notes: Human antibody from XenoMouse hybridoma (IgG2 or IgG4 strains), purified from conditioned medium; also called L23H23
# B18: antibody A-17 (antibody, V domains shown)
# VH: QVQLVQSGAEVKKPGASVKVSCKASGYTFTSYGISWARQAPGQGLEWMGWIGVYNGHTKYAQKFQGRVTMTTDTSTSTAYMELRSLRSDDTAIFYCARRVAVAGYFDYWGQGTLVTVSS
# VL: QSVLTQPPSVSGAPGQRVTISCTGSSSNIGAGYAVHWYQQLPGTAPKLLIYDNNNRPSGVPDRFSGSKSGTSASLAITGLQAEDEADYYCQSYDSSLSAIFGGGTKLTVL
# notes: Human antibody from XenoMouse hybridoma (IgG2 or IgG4 strains), purified from conditioned medium; also called L17H17
# B19: antibody A-16 (antibody, V domains shown)
# VH: QVQLVQSGAEVKKPGASVKVSCKASGYTFTGYYLHWVRQAPGQGLEWMGWIIPDSGGTKYAQKFQGRVTMTRDTSISTAYLELSRLRSDDTAVYYCAREGFHYDILTGSYFYYYGMDVWGQGTTVTVSS
# VL: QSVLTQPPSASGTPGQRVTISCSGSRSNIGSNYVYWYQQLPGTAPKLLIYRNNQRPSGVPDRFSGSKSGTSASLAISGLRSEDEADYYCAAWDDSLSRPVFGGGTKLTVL
# notes: Human antibody from XenoMouse hybridoma (IgG2 or IgG4 strains), purified from conditioned medium; also called L16H16
# Target: T1, cynomolgus glucagon receptor
# Experiment: cell-based or functional assay
row,Binder,"IC50 of inhibition of glucagon-induced cAMP production (HTRF, CHO K1 cells expressing the receptor) [nM]"
1,B1,26.6

# Target: mouse glucagon receptor (mouse (Mus musculus), UniProt Q61606 27-485)
# Experiment: cell-based or functional assay
row,Binder,"IC50 of inhibition of glucagon-induced cAMP production (HTRF, CHO K1 cells expressing the receptor) [nM]"
1,B1,4.1

# Target: T2, human glucagon receptor (human, UniProt P47871 26-477)
# Experiment: cell-based or functional assay
row,Binder,"IC50 of inhibition of glucagon-induced cAMP production (HTRF, CHO K1 cells expressing the receptor) [nM]"
1,B1,7.4

# Target: rat glucagon receptor (rat (Rattus norvegicus), UniProt P30082 27-485)
# Experiment: cell-based or functional assay
row,Binder,"IC50 of inhibition of glucagon-induced cAMP production (HTRF, CHO K1 cells expressing the receptor) [nM]"
1,B1,9.9

# Target: T3, chimera-15 (amino acids 80-119 from human GCGR, remainder from human GLP-1 receptor) (human, UniProt P43220 24-83; P43220 125-463)
# T3 construct: Expressed on cells; not shown: in-frame C-terminal fluorescent protein, not identified
# Experiment: FMAT on cells expressing the chimeric receptor
row,Binder,binding result
1,B2,no binding
2,B3,no binding

# Target: T4, chimera-10 (amino acids 80-142 from human GCGR, remainder from human GLP-1 receptor) (human, UniProt P43220 24-83; P43220 146-463)
# T4 construct: Expressed on cells; not shown: in-frame C-terminal fluorescent protein, not identified
# Experiment: FMAT on cells expressing the chimeric receptor
row,Binder,binding result
1,B2,no binding
2,B3,no binding

# Target: T5, chimera-8 (amino acids 80-477 from human GCGR, remainder from human GLP-1 receptor) (human, UniProt P43220 24-83)
# T5 construct: Expressed on cells; not shown: in-frame C-terminal fluorescent protein, not identified
# Experiment: FMAT on cells expressing the chimeric receptor
row,Binder,binding result
1,B2,no binding
2,B3,no binding

# Target: T2, human glucagon receptor
# Experiment: cell-based or functional assay
# Remark: another data set of the same source
row,Binder,"IC50 of inhibition of glucagon-induced cAMP production (HTRF, CHO K1 cells expressing the receptor) [nM]"
1,B4,15
2,B5,10.4
3,B6,7.2
4,B7,10.1
5,B8,458
6,B9,8.8
7,B10,13.3
8,B11,32.2
9,B12,16.7
10,B13,72.6
11,B14,21.3
12,B3,204
13,B15,11.3

# Target: T2, human glucagon receptor
# Experiment: competition with 1 nM Alexa-labeled A-3 for human GCGR on CHO cells, FMAT
row,Binder,binding result
1,B16,binds
2,B17,binds
3,B18,binds
4,B19,binds
